Reference: patent US20220227870A1 (Innovent, published 2022)

T1: human LAG-3 expressed on the surface of cells (293-LAG-3 cells) (human, UniProt P18627 23-525)
T1 construct: whole, on cells; also called HEK293 cells overexpressing LAG-3; CD223
T1 sequence (looked up): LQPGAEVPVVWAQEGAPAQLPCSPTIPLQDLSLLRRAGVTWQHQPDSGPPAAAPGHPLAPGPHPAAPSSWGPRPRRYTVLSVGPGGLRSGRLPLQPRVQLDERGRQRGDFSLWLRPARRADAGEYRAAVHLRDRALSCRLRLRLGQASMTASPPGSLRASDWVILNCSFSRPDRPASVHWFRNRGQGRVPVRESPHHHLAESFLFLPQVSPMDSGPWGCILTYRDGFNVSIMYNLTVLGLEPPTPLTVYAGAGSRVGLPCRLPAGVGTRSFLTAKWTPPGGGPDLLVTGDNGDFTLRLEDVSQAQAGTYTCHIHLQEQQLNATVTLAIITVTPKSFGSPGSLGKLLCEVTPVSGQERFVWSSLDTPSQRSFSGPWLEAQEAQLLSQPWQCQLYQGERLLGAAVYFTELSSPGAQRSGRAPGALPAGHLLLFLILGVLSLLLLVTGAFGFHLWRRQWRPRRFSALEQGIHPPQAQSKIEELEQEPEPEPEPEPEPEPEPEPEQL


What was measured:
h CD47 (Acrobiosystems) = target: T2, h CD47 (Acrobiosystems) (human, UniProt Q08722 19-139); test: ForteBio Octet BLI; antibody loaded on AHC sensor, h CD47 100 nM in solution
T2 construct: Bought soluble antigen; also called CD47 protein in solution
Description: The anti-human IgG Fc biosensor AHC was immersed in each well containing the antibody solution, and immersed at room temperature for 600 seconds to load the samples. The sensor was then washed in SD buffer until it returned to the baseline, and then immersed in a well containing 100 μL of the antigen solution to monitor the association of the antibody with the antigen. The sensor was then transferred to a well containing 100 ul of SD buffer to monitor the antibody dissociation. The rotation speed was 400 rpm and the temperature was 30° C. The background-corrected association and dissociation curves were plotted by the Octet analysis software (ForteBio) to generate the association (k_{∞}) rate constant and dissociation (kdis) rate constant, which are then used to calculate the equilibrium dissociation constant (KD).

[1] = target: T3, tumor cells H292 (ATCC), co-incubated with human red blood cells; test: flow cytometry; CFSE-labelled H292 cells co-incubated 1:20 with human red blood cells; antibody 0.014 nM
T3 construct: also called H292 cells
Description: (§1) The mixture was then gently added to 4 tubes each with 12.5 ml of FiColl (Thermo). The samples were centrifuged at 400 g for 30 min with zero deceleration. The upper serum and PBMC were removed to obtain red blood cells in the lowest layer.
(§2) Tumor cells H292 (ATCC) were fluorescently labeled with fluorochrome CFSE according to the instructions of CellTrace™ CFSE Cell Proliferation Kit (Invitrogen, catalog number: C34554). The labeled tumor cells were co-cultured with the aforementioned isolated human red blood cells at a ratio of 1:20 in terms of cell number, and meanwhile, tested antibody solutions of different concentrations were added. The cells were incubated at 4° C. for 30 min. […] The cells were washed at least twice with PBS and analyzed by flow cytometry.

[2] = target: T3, tumor cells H292 (ATCC), co-incubated …; test: flow cytometry; CFSE-labelled H292 cells co-incubated 1:20 with human red blood cells; antibody 10.000 nM
Description: as §1, §2

[3] = target: T4, human CD47 expressed on the surface of cells (CHO-S-CD47 cells) (human, UniProt Q08722 19-323); test: FACS on CHO-S cells overexpressing human CD47; antibody sample of day 0
T4 construct: whole, on cells; also called CHO-S cells overexpressing CD47; CHO-CD47

[4] = target: T4, human CD47 expressed on the surface of …; test: FACS on CHO-S cells overexpressing human CD47; antibody sample after 30 days at 40 C
Description: (§3) The cell suspension was centrifuged at 400 g on a centrifuge for 5 minutes to remove the cell medium. […] The cell suspension was centrifuged at 400 g for 5 minutes, and then the supernatant was removed, and the cells were washed with PBS to remove the unbound antibodies. The obtained cell suspension was centrifuged at 400 g for 5 minutes to remove PBS. 100 μL of the solution of PE-conjugated anti-human Fc antibody (Jackson Immuno Research) diluted at a ratio of 1:200 was added to each well, and the cells were incubated in the dark on the ice for 30 minutes. Then the cell suspension was centrifuged at 400 g for 5 minutes and the supernatant was removed. The cells were washed with PBS to remove the unbound PE-conjugated anti-human Fc antibody. The cells were resuspended with 100 μL of PBS, and the binding of the antibodies to cells was assayed by FACS.

[5] = target: T3, tumor cells H292 (ATCC), co-incubated …; test: flow cytometry; CFSE-labelled H292 cells co-incubated 1:20 with human red blood cells; antibody 0.123 nM
Description: as §2

[6] = target: T3, tumor cells H292 (ATCC), co-incubated …; test: flow cytometry; CFSE-labelled H292 cells co-incubated 1:20 with human red blood cells; antibody 1.111 nM
Description: as §2

[7] = target: T3, tumor cells H292 (ATCC), co-incubated …; test: flow cytometry; CFSE-labelled H292 cells co-incubated 1:20 with human red blood cells; antibody 0.370 nM
Description: as §1, §2

[8] = target: T3, tumor cells H292 (ATCC), co-incubated …; test: flow cytometry; CFSE-labelled H292 cells co-incubated 1:20 with human red blood cells; antibody 3.333 nM
Description: as §1, §2

[9] = target: T3, tumor cells H292 (ATCC), co-incubated …; test: flow cytometry; CFSE-labelled H292 cells co-incubated 1:20 with human red blood cells; antibody 0.041 nM
Description: as §2

[10] = target: T4, human CD47 expressed on the surface of …; test: FACS on CHO-S cells overexpressing human CD47, PE-conjugated anti-human Fc detection, MFI
Description: as §3

[11] = target: T5, human 4-1BB expressed on the surface of cells (CHO-S-4-1BB cells) (human, UniProt Q07011 24-255); test: FACS on CHO-S cells overexpressing human 4-1BB, PE-conjugated anti-human Fc detection, MFI
T5 construct: whole, on cells; also called CHO-S cells overexpressing 4-1BB; CD137

[12] = target: T6, human PD-L1 expressed on the surface of cells (CHO-S-PD-L1 cells) (human, UniProt Q9NZQ7 19-290); test: FACS on CHO-S cells overexpressing human PD-L1, PE-conjugated anti-human Fc detection, MFI
T6 construct: whole, on cells; also called CHO-S cells overexpressing PD-L1; PD-L1 aAPC/CHO-K1 cells
Description: In short, CHO-S-PD-L1 cells were counted, and the cell suspension was diluted to 1×10⁶ cells/ml with cell medium, and then added to a U-bottom 96-well plate at 100 μl/well. The cell suspension was centrifuged at 400 g on a centrifuge for 5 minutes to remove the cell medium. […] The cell suspension was centrifuged at 400 g for 5 minutes, and then the supernatant was removed, and the cells were washed with PBS to remove the unbound antibodies. The obtained cell suspension was centrifuged at 400 g for 5 min to remove PBS. 100 μl of the solution of PE-conjugated anti-human Fc antibody (Jackson Immuno Research) diluted at a ratio of 1:200 was added to each well, and the cells were incubated in the dark on the ice for 30 min. Then the cell suspension was centrifuged at 400 g for 5 min and the supernatant was removed. The cells were washed with PBS to remove the unbound PE-conjugated anti-human Fc antibody. The cells were resuspended with 100 μl of PBS, and the binding of the antibodies to cells was assayed by FACS.

[13] = target: T1, human LAG-3 expressed on the surface of …; test: FACS on HEK293 cells overexpressing human LAG-3, PE-conjugated anti-human Fc detection, MFI

T5 sequence (Q07011 24-255): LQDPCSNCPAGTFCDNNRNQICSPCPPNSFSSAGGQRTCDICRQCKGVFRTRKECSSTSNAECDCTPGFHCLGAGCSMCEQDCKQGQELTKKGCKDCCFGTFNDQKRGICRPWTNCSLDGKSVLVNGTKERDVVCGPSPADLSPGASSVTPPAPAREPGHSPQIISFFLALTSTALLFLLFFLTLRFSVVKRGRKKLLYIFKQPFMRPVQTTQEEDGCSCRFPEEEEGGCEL
T6 sequence (Q9NZQ7 19-290): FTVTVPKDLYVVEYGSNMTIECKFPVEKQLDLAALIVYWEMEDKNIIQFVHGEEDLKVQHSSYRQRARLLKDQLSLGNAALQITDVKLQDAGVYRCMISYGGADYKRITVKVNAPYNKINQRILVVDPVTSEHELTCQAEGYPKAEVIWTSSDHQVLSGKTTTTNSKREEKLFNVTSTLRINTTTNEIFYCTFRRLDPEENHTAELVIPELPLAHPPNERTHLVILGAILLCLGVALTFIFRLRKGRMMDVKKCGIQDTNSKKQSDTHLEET

| Kd (h CD47 (Acrobiosystems)) | koff (h CD47 (Acrobiosystems)) | kon (h CD47 (Acrobiosystems)) | proportion of antibody binding to H292 cells [1] | proportion of antibody binding to H292 cells [2] | EC50 (read off the curve) [3] | proportion of antibody binding to H292 cells [5] | proportion of antibody binding to H292 cells [6] | proportion of antibody binding to H292 cells [7] | proportion of antibody binding to H292 cells [8] | proportion of antibody binding to H292 cells [9] | EC50 (read off the curve) [10] | EC50 (read off the curve) [11] | further results | Binder |
| --- | --- | --- | --- | --- | --- | --- | --- | --- | --- | --- | --- | --- | --- | --- |
| 1.31 nM | 0.00155 s⁻¹ | 1.18e+06 M⁻¹ s⁻¹ | 14.9% | 12.5% | ~2 nM | 88.5% | 23% | 44.5% | 12.1% | 82% | ~2 nM | – | EC50 (read off the curve) [4]: ~3 nM | anti-CD47/PD-L1 bispecific antibody Kh2NF-PC (bispecific antibody, human IgG1, kappa, L234A L235A, Triple-chain antibody (1+2 format)) heavy: not shown light: DIQMTQSPSSVSASVGDRVTITCRASQGISRWLAWYQQKPGKAPKLLIYAASSLQSGVPSRFSGSGSGTDFTLTISSLQPEDFATYYCQQTVSFPITFGGGTKVEIKRTVAAPSVFIFPPSDEQLKSGTASVVCLLNNFYPREAKVQWKVDNALQSGNSQESVTEQDSKDSTYSLSSTLTLSKADYEKHKVYACEVTHQGLSSPVTKSFNRGEC QVQLQESGGGLVQPGGSLRLSCAASAYTISRNSMGWFRQAPGKGLEGVAAIESDGSTSYSDSVKGRFTISLDNSKNTLYLEMNSLRAEDTAVYYCAAPKVGLGPRTALGHLAFMTLPALNYWGQGTLVTVSSGGGGSGGGGSGGGGSGGGGSQVQLQESGGGLVQPGGSLRLSCAASAYTISRNSMGWFRQAPGKGLEGVAAIESDGSTSYSDSVKGRFTISLDNSKNTLYLEMNSLRAEDTAVYYCAAPKVGLGPRTALGHLAFMTLPALNYWGQGTLVTVSSDKTHTCPPCPAPEAAGGPSVFLFPPKPKDTLMISRTPEVTCVVVDVSHEDPEVKFNWYVDGVEVHNAKTKPREEQYNSTYRVVSVLTVLHQDWLNGKEYKCKVSNKALPAPIEKTISKAKGQPREPQVCTLPPSRDELTKNQVSLSCAVKGFYPSDIAVEWESNGQPENNYKTTPPVLDSDGSFFLVSKLTVDKSRWQQGNVFSCSVMHEALHNHYTQKSLSLSPG |
| 1.07 nM | 0.00128 s⁻¹ | 1.19e+06 M⁻¹ s⁻¹ | 1.41% | 11.3% | ~3 nM | 83.2% | 41% | 61.6% | 13.2% | 46.3% | ~2 nM | – | – | anti-CD47/PD-L1 bispecific antibody Kh2NF-PC-NL (bispecific antibody, human IgG1, kappa, L234A L235A, Triple-chain antibody without a linker between the two VHH; Fc with LALA and knob-in-hole mutations) heavy: not shown light: DIQMTQSPSSVSASVGDRVTITCRASQGISRWLAWYQQKPGKAPKLLIYAASSLQSGVPSRFSGSGSGTDFTLTISSLQPEDFATYYCQQTVSFPITFGGGTKVEIKRTVAAPSVFIFPPSDEQLKSGTASVVCLLNNFYPREAKVQWKVDNALQSGNSQESVTEQDSKDSTYSLSSTLTLSKADYEKHKVYACEVTHQGLSSPVTKSFNRGEC QVQLQESGGGLVQPGGSLRLSCAASAYTISRNSMGWFRQAPGKGLEGVAAIESDGSTSYSDSVKGRFTISLDNSKNTLYLEMNSLRAEDTAVYYCAAPKVGLGPRTALGHLAFMTLPALNYWGQGTLVTVSSQVQLQESGGGLVQPGGSLRLSCAASAYTISRNSMGWFRQAPGKGLEGVAAIESDGSTSYSDSVKGRFTISLDNSKNTLYLEMNSLRAEDTAVYYCAAPKVGLGPRTALGHLAFMTLPALNYWGQGTLVTVSSDKTHTCPPCPAPEAAGGPSVFLFPPKPKDTLMISRTPEVTCVVVDVSHEDPEVKFNWYVDGVEVHNAKTKPREEQYNSTYRVVSVLTVLHQDWLNGKEYKCKVSNKALPAPIEKTISKAKGQPREPQVCTLPPSRDELTKNQVSLSCAVKGFYPSDIAVEWESNGQPENNYKTTPPVLDSDGSFFLVSKLTVDKSRWQQGNVFSCSVMHEALHNHYTQKSLSLSPG |
| – | – | – | – | – | – | – | – | – | – | – | – | ~5 nM | EC50 (read off the curve) [12]: ~2 nM | anti-4-1BB/PD-L1 bispecific antibody Kh2NF-P4 (bispecific antibody, human IgG1, kappa, L234A L235A, Triple-chain antibody; Fc with LALA and knob-in-hole mutations) heavy: not shown light: not shown QVQLQESGGGLVQPGGSLRLSCAASAYTISRNSMGWFRQAPGKGLEGVAAIESDGSTSYSDSVKGRFTISLDNSKNTLYLEMNSLRAEDTAVYYCAAPKVGLGPRTALGHLAFMTLPALNYWGQGTLVTVSSGGGGSGGGGSGGGGSGGGGSQVQLQESGGGLVQPGGSLRLSCAASAYTISRNSMGWFRQAPGKGLEGVAAIESDGSTSYSDSVKGRFTISLDNSKNTLYLEMNSLRAEDTAVYYCAAPKVGLGPRTALGHLAFMTLPALNYWGQGTLVTVSSDKTHTCPPCPAPEAAGGPSVFLFPPKPKDTLMISRTPEVTCVVVDVSHEDPEVKFNWYVDGVEVHNAKTKPREEQYNSTYRVVSVLTVLHQDWLNGKEYKCKVSNKALPAPIEKTISKAKGQPREPQVCTLPPSRDELTKNQVSLSCAVKGFYPSDIAVEWESNGQPENNYKTTPPVLDSDGSFFLVSKLTVDKSRWQQGNVFSCSVMHEALHNHYTQKSLSLSPG |
| – | – | – | – | – | – | – | – | – | – | – | – | – | EC50 (read off the curve) [13]: ~0.5 nM | anti-LAG-3 antibody ADI-31853 (antibody, V domains shown, also called parent antibody (anti-LAG-3)) VH: QLQLQESGPGLVKPSETLSLTCTVSGGSIYSESYYWGWIRQPPGKGLEWIGSIVYSGYTYYNPSLKSRVTISVDTSKNQFSLKLSSVTAADTAVYYCARVRTWDAAFDIWGQGTMVTVSS VL: DIQMTQSPSSLSASVGDRVTITCQASQDISNYLNWYQQKPGKAPKLLIYDASNLETGVPSRFSGSGSGTDFTFTISSLQPEDIATYYCQQVLELPPWTFGGGTKVEIK |
| – | – | – | – | – | – | – | – | – | – | – | – | ~1 nM | – | anti-4-1BB antibody BMS-663513 (antibody, V domains shown, also called parent antibody (anti-4-1BB)) VH: QVQLQQWGAGLLKPSETLSLTCAVYGGSFSGYYWSWIRQSPEKGLEWIGEINHGGYVTYNPSLESRVTISVDTSKNQFSLKLSSVTAADTAVYYCARDYGPGNYDWYFDLWGRGTLVTVSS VL: EIVLTQSPATLSLSPGERATLSCRASQSVSSYLAWYQQKPGQAPRLLIYDASNRATGIPARFSGSGSGTDFTLTISSLEPEDFAVYYCQQRSNWPPALTFGGGTKVEIK |
| – | – | – | – | – | – | – | – | – | – | – | – | – | binding result [10]: no binding (tested: about 300 nM) | IgG1 Control (antibody, V domains shown, also called IgG1 negative control antibody) VH: EVRLLESGGGLVQPGGSLRLSCAASGFTFSNYAMGWVRQAPGKGLEWVSAISGSGGSTYYADSVKGRFTTSRDDSKNALYLQMNSLRAEDTAVYYCARGGPGWYAADVWGQGTTVTVSS VL: DIQMTQSPSSLSASVGDRVTITCRASQSISSYLNWYQQKPGKAPKLLIYAASSLQSGVPSRFSGSGSGTDFTLTISSLQPEDFATYYCQQADLPAFAFGGGTKVEIKR |
